# T1: GPNMB (Homo sapiens, UniProt Q14956)
# T1 construct: we cloned the human CG56972 extracellular domain (ECD; aa 23-480); made in house; host or cells: HEK 293 cells
# T1 sequence (Q14956 23-492): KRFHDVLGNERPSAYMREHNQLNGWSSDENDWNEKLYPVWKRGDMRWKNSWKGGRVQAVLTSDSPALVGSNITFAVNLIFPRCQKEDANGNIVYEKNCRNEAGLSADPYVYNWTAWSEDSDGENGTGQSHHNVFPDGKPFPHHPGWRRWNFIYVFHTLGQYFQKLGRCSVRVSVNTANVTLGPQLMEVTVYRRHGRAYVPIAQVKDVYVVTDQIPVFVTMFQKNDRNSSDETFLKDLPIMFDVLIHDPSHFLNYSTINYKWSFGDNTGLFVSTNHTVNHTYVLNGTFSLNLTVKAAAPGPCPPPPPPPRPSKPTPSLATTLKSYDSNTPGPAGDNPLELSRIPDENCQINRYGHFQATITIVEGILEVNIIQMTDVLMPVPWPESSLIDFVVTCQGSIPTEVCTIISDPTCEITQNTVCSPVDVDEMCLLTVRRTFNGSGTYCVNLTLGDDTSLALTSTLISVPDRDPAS
# T2: cell membrane-bound GPNMB protein (Homo sapiens, UniProt Q14956)
# T2 construct: endogenous in cells; host or cells: UACC-62 and a panel of melanoma lines (A5)
# T2 sequence (Q14956 23-572): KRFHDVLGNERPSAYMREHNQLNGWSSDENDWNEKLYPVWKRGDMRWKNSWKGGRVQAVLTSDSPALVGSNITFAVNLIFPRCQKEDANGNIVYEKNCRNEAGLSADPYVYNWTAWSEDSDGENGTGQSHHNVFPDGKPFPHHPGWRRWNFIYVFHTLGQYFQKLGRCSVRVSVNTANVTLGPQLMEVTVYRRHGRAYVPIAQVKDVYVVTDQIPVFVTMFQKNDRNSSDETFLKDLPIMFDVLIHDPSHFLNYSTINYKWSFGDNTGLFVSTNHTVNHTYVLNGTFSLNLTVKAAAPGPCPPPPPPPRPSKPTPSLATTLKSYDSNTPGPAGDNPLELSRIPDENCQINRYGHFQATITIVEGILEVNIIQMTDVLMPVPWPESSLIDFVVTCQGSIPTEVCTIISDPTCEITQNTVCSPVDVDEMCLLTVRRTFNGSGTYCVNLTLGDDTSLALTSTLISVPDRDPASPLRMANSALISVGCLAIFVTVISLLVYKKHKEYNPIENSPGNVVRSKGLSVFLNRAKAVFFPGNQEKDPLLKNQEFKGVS
# T3: GPNMB (Homo sapiens, UniProt Q14956)
# T3 construct: Tissue sections (5 μm) were cut from formalin fixed and paraffin embedded tissue samples; tissue IMPATH, Los Angeles, Calif; host or cells: normal and tumor human tissue microarrays (melanoma, lung and other carcinomas, skin)
# T3 sequence (Q14956 23-572): T2 sequence (Q14956 23-572)
# B1: 1.10.2: human anti-GPNMB antibody; VH SEQ ID NO: 2, VL SEQ ID NO: 11 (antibody, listed as Homo sapiens, V domains shown)
# VH: QVQLQESGPGLVKPSETLSLTCTVSGDSISNYYWSWIRQPPGKGLEWIGYFYYSGSTNYNPSLKSRVTISVDTSKNQFSLKLSSVTAADTAVYYCARDRGWADYWGQGTLVTVSSA
# VL: EIVLTQSPGTLSLSPGERATLSCRTSQSISSSYLAWYQQKPGQVPRLLIYGASSRATGIPDRFSGSGSGTDFTLTISRLEPEDFAVYYCQQYGSSITFGQGTRLEIKR
# B2: 2.22.1: human anti-GPNMB antibody; VH SEQ ID NO: 164, VL SEQ ID NO: 173 (antibody, listed as Homo sapiens, V domains shown)
# VH: QVQLEQSGPGLVKPSQNLSLTCTVSGGSISSGGYFWSWIRQHPGKGLEWIGYIYYSGNTYYNPSLKSRVTISVDTSKNQFSLKLSSVTAADTAVYYCARDYYYDTSGFSYRYDWYYGMDVWGQGTTVTVSSA
# VL: DIQLTQSPSSLSASVGDRVTITCRASQGIRNDLGWYQQKPGKAPKRLIYAASSLQNGVPSRFSGSGSGTEFTLTISSLQPEDFATYYCLQHNTYPAFGQGTKVEIKR
# B3: 1.2.2: human anti-GPNMB antibody; VH SEQ ID NO: 38, VL SEQ ID NO: 47 (antibody, listed as Homo sapiens, V domains shown)
# VH: ITLKESGPTLVKPTQTLTLTCTFSGFSLSAGGVGVGWIRQPPGKALEWLALIYWNDDKRYSPSLRSRLTITKDTSKNQVVLTITNMDPVDTATYYCAHSHYDYDWGSYFDYWGQGTLVTVSSA
# VL: DIVMTQTPLSLPVTPGEPASISCRSSQSLLDSDDGNTYLDWYLQKPGQSPQLLIYTLSYRASGVPDRFSGSGSGTDFTLNISRVEAEDVGVYYCMQRIEFPITFGQGTRLEIKR
# B4: 1.7.1: human anti-GPNMB antibody; VH SEQ ID NO: 56, VL SEQ ID NO: 65 (antibody, listed as Homo sapiens, V domains shown)
# VH: QVQLQESGPGLVKPSQTLSLTCTVSGGSISSANYYWTWIRQHPGKGLEWIGYIYYSGSTYCNPSLKSRVIISVDTSKNQFSLKLSSVTAADTAVYYCARGYNWNYFDYWGQGTLVTVSSA
# VL: DIVMTQSPATLSVSPGERATLSCRASQSVSSNLAWYQERPGQAPRLLIYGASTRATGIPARFSGSGSGTEFTLTISSLQSEDFAVYYCQQYNKWPPWTFGQGTKVEIER
# Tests used:
# [1] = biological target: T1, GPNMB; test: BiaCore 2000 analysis of hybridoma supernatants binding to GPNMB; conditions: mAb captured on protein A; GPNMB at 880 nM; 1:1 kinetic model
# Procedure: Certain Hybridoma cell supernatants (29) were analyzed for binding to GPNMB by BiaCore® 2000 biosensor equipped with a research-grade CM5 sensor chip. A 1:25 dilution of cell supernatant was passed over a protein A surface for 5 min followed by washing the surface for 10 mins. Subsequently, GPNMB was injected for 90 sec. over the surface at a concentration of 880 nM followed by dissociation. Double-referenced binding data were obtained by subtracting the signal from a control flow cell and subtracting the baseline drift of a buffer injected just prior to the antigen injection. GPNMB binding data for each mAb was normalized for the amount of mAb captured on each surface. Normalized, drift corrected responses were also measured. The sensorgrams were fit to a simple 1:1 kinetic model.
# [2] = biological target: T1, GPNMB; test: Binning of antibodies (Luminex competitive binding); conditions: three bins of six anti-GPNMB antibodies
# Procedure: Certain antibodies, described herein were binned in accordance with the protocol described in U.S. Patent Application Publication No. 20030157730. M×hIgG conjugated beads are prepared for coupling to primary antibody. The volume of supernatant needed is calculated using the following formula: (n+10)×50 μL (where n=total number of samples on plate). Where the concentration is known, 0.5 μg/mL is used. Bead stock is gently vortexed, then diluted in supernatant to a concentration of 2500 of each bead per well or 0.5×10^5/mL and incubated on a shaker in the dark at RT overnight, or 2 hours if at a known concentration of 0.5 μg/mL. Following aspiration, 50 μL of each bead is added to each well of filter plate, then washed once by adding 100 μL/well wash buffer and aspirating. Antigen and controls are added to filter plate 50 μL/well then covered and allowed to incubate in the dark for 1 hour on shaker. Following a wash step, a secondary unknown antibody is added at 50 μL/well using the same dilution (or concentration if known) as is used for the primary antibody. The plates are then incubated in the dark for 2 hours at RT on shaker followed by a wash step. Next, 50 μL/well biotinylated m×hIgG diluted 1:500 is added and allowed to incubate in the dark for 1 hour on shaker at RT. […] Following a wash step, each well is resuspended in 80 μL blocking buffer and read using Luminex. […]
# [3] = biological target: T2, cell membrane-bound GPNMB protein; test: FACS analysis of anti-GPNMB antibody binding to melanoma cell lines; conditions: primary antibody 1 μg/mL
# [4] = biological target: T3, GPNMB; test: GPNMB immunohistochemistry (IHC) on human tissue microarrays; assay type: binding; conditions: normal and tumor human tissue microarrays (lung, ovarian, renal, esophagus, head & neck carcinomas, squamous cell carcinoma, melanomas, normal skin)
# Procedure: Anti-GPNMB monoclonal antibodies were evaluated for reactivity with frozen and fixed tissue specimens. Tissue sections (5 μm) were cut from formalin fixed and paraffin embedded tissue samples and were rehydrated through incubations in xylene and a graded ethanol series terminating in PBS. Endogenous peroxidase activity was quenched in a 3% solution of hydrogen peroxide in methanol
# Tissue sections were blocked in blocking buffer (5% BSA (Sigma), 1% goat serum (Jackson Immunolabs, West Grove, Pa.) in PBS) for 1 hour. Primary and secondary antibodies were precomplexed in 5% BSA and 1% goat serum in PBS for 1 hour at 37° C. at a molar ratio of approximately 10:1 of anti-GPNMB or control IgG to secondary biotinylated goat anti-human IgG (Jackson Immunolabs). Complexes were blocked with a 1:2000 dilution of human serum and incubated again for 1 hour at 37° C. Tissue sections were incubated with anti-GPNMB antibody or isotype control antibody complexes diluted in blocking buffer for 1 hour. Sections were washed in 3 changes of PBS for 5 to 10 minutes each and incubated with a 1:200 dilution of streptavidin conjugated horseradish peroxidase (Jackson Immunolabs) in blocking buffer for 30 minutes and then washed as before. Antibody was detected using DAB reagent (Vector labs). […]
# [5] = biological target: T1, GPNMB; test: ELISA of hybridoma supernatants for binding to GPNMB
# Procedure: After 14 days of culture, hybridoma supernatants were screened for GPNMB specific monoclonal antibodies. In the Primary screen, the ELISA plates (Fisher, Cat. No. 12-565-136) were coated with 50 μL/well of GPNMB (1 μg/mL) in Coating Buffer (0.1 M Carbonate Buffer, pH 9.6, NaHCO3 8.4 g/L), then incubated at 4° C. overnight. After incubation, the plates were washed with Washing Buffer (0.05% Tween 20 in PBS) three times. 200 μL/well Blocking Buffer (0.5% BSA, 0.1% Tween 20, 0.01% Thimerosal in 1×PBS) were added and the plates were incubated at room temperature for 1 h. After incubation, the plates were washed with Washing Buffer three times. Aliquots (50 μL/well) of hybridoma supernatants and positive and negative controls were added, and the plates were incubated at room temperature for 2 h. The positive control used throughout was serum from the relevant GPNMB immunized XenoMouse® mouse and the negative control was serum from the KLH-immunized relevant strain of XenoMouse® mouse. After incubation, the plates were washed three times with Washing Buffer. 100 μL/well of detection antibody goat anti-huIgGfc-HRP (Caltag, Cat. No. H10507, using concentration was 1:2000 dilution) was added and the plates were incubated at room temperature for 1 hour. After incubation, the plates were washed three times with Washing Buffer. 100 μl/well of TMB (BioFX Lab. Cat. No. TMSK-0100-01) was added, and the plates were allowed to develop for about 10 minutes (until negative control wells barely started to show color). 50 μl/well stop solution (TMB Stop Solution (BioFX Lab. Cat. No. STPR-0100-01) was then added and the plates were read on an ELISA plate reader at a wavelength of 450 nm.
# Hybridoma supernatants were screened for binding to GPNMB by ELISA as described above in Example 2.
# [6] = TK10 Cells (GPNMB negative control)
Molecule,ka [1] [M⁻¹ s⁻¹],kd [1] [s⁻¹],bin [2],"Geo Mean Ratio of anti-GPNMB Staining (relative to pK16) [3, 6]",Geo Mean Ratio of anti-GPNMB Staining (relative to pK16) ([3]; UACC-62 Cells),IHC staining [4],Avg OD ([5]; antibody at 12.3 ng/mL),Avg OD ([5]; antibody at 37 ng/mL),Avg OD ([5]; antibody at 111 ng/mL),Avg OD ([5]; antibody at 333 ng/mL),Avg OD ([5]; antibody at 1 μg/mL),Avg OD ([5]; antibody at 3 μg/mL)
B1,3955,0.000466,–,–,–,–,–,–,–,–,–,–
B2,–,–,Bin 1,I. 1.10,H. 4.46,Positive staining,–,–,–,–,–,–
B3,9257,0.00089,–,L. 0.98,K. 1.24,–,0.049,0.094,0.199,0.356,0.499,0.763
B4,11842,0.00144,–,–,–,–,–,–,–,–,–,–

# Source: patent US20130244255A1, “ANTIBODIES DIRECTED TO GPNMB AND USES THEREOF” (priority 2006, published 2013)
